According to US20030232420A1 (SEQUENOM, published 2003):
Ends that are not written are not given here.

Assays:
Full-length murine RIIα [1] = target: T1, Full-length murine RIIα (murine, UniProt P12367 2-401); test: fluorescence anisotropy, labeled peptide with increasing full-length RIIα; the concentration on the axis is that of the protein
T1 construct: mature; given as full-length
Method: (§1) Binding of each fluorescently labeled peptide to the regulatory subunits was monitored using fluorescence anisotropy. RIα and RIIα were serially diluted beginning at 1 μM and 0.1 μM, respectively, into 10 mM HEPES pH 7.4, 0.15 M NaCl, 3 mM EDTA, 0.005% Surfactant P20 (Biacore) containing either 10 nM or 1 nM of fluorescently labeled peptide for RIα and RIIα, respectively. The samples were equilibrated for at least 1 hour at room temperature and fluorescence anisotropy monitored using a Fluoromax-2 (Jobin Yvon Horiba, SPEX Division, Edison, N.J.) equipped with Glan-Thompson polarizers. The rhodamine-labeled peptide was excited at 541 nm (5-10 nm bandpass) and emission monitored at 575 nm (5-10 nm bandpass). The anisotropy was calculated directly with the Fluoromax software using the following equation: […]
(§2) The binding affinities of three peptides designated RIIα-specific (A13L; SEQ ID NO:109), RIα-specific (Q9F, V21W, and M25F; SEQ ID NO:103) and null (A17E and V21W; SEQ ID NO:110) were compared with the unsubstituted peptide (FIG. 2 and Table 7) using fluorescence anisotropy. […] The null peptide bound very poorly to RIα and binding to RIIα could not be detected (FIG. 2).

Full-length bovine RIα [2] = target: T2, Full-length bovine RIα (bovine, UniProt P00514 1-380); test: fluorescence anisotropy, labeled peptide
T2 construct: mature; given as full-length
Method: as §1
(§3) Several additional truncated and substituted peptides were synthesized and their affinity to RIα and RIIα evaluated using fluorescence anisotropy (see Table 8). Binding was evaluated for both RIα and RIIα0 using fluorescence anisotropy as described herein. Substituted residues are in bold Table 8. Tryptophan at a position corresponding to residue 21 of SEQ ID NO:2 is important for discriminating against binding to the RIIα subunit.

Full-length murine RIIα [3] = target: T1, Full-length murine RIIα; test: fluorescence anisotropy, labeled peptide
Method: as §1, §3

Full-length bovine RIα [4] = target: T2, Full-length bovine RIα; test: fluorescence anisotropy, labeled peptide, n = 3
Method: as §1, §2

Full-length murine RIIα [5] = target: T1, Full-length murine RIIα; test: fluorescence anisotropy, labeled peptide, n = 3
Method: as §1, §2

[6] = target: T3, RIα isoform of the PKA regulatory subunit (Bos taurus (Bovine), UniProt P00514 2-380); test: fluorescence anisotropy
T3 construct: also called R1α; PKA-RIα

Full-length bovine RIα [7] = target: T2, Full-length bovine RIα; test: fluorescence anisotropy, labeled peptide with increasing full-length RIα; the concentration on the axis is that of the protein
Method: as §1, §2

Full-length bovine RIα [8] = target: T2, Full-length bovine RIα; test: fluorescence anisotropy
GFP-RIIα D/D = target: T4, GFP-RIIα D/D (mouse, UniProt P12367 1-46); test: SPOT peptide array, anti-GFP detection
T4 construct: range 1-46; His tag cleaved with thrombin; also called GFP-RII D/D; D/D domain of mouse RIIα (residues 1-46) fused to GFP; not shown: green fluorescent protein (GFP)

GFP-RIα D/D = target: T5, GFP-RIα D/D (bovine, UniProt P00514 1-109); test: SPOT peptide array, anti-GFP detection
T5 construct: range 1-109; His tag cleaved with thrombin; also called dimerization/docking (D/D) domain of bovine RIα (residues 1-109) fused to GFP; not shown: green fluorescent protein (GFP)

PKA-RIIα-GFP = target: T6, PKA-RIIα-GFP (UniProt P42212 1-238 = GFP); test: SPOT membrane, anti-GFP detection
T6 construct: it may be the same construct as m8; also called PKA-RIIa-GFP
Method: Substitution analysis of both allelic peptides ([…]; SEQ ID NO:2 and […]; SEQ ID NO:1) was conducted. Each amino acid of the 27-mer peptide was substituted, one amino acid at a time per peptide, by any naturally occurring L- and D- amino acid. For both peptides complete L- and D- substitution analysis membranes have been screened for binding of PKA-RIα-GFP. After regeneration, the peptide arrays were incubated with PKA-RIIα-GFP. After binding, detection was carried out with an anti-GFP antibody in combination with a peroxidase-labeled secondary antibody.

T1 sequence (P12367 2-401): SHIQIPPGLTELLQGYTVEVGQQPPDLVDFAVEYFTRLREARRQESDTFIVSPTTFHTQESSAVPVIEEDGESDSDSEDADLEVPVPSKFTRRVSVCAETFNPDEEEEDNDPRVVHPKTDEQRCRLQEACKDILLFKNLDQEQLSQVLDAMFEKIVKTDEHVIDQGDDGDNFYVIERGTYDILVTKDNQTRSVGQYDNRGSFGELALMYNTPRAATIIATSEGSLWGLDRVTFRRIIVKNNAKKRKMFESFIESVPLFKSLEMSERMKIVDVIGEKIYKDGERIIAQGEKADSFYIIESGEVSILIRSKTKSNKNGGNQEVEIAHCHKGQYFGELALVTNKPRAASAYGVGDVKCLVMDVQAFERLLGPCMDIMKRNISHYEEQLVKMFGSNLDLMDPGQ
T2 sequence (P00514 whole entry): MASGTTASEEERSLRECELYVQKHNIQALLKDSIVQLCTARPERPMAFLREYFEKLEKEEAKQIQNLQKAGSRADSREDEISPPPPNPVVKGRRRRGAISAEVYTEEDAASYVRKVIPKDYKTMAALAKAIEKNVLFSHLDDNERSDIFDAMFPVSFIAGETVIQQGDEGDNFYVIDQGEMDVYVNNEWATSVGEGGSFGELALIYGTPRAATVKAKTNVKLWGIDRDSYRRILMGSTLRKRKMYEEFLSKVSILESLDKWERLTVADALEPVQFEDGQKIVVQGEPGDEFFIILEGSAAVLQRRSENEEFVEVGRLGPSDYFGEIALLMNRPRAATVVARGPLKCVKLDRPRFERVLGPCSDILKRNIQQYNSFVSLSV
T3 sequence (P00514 2-380 limits assumed): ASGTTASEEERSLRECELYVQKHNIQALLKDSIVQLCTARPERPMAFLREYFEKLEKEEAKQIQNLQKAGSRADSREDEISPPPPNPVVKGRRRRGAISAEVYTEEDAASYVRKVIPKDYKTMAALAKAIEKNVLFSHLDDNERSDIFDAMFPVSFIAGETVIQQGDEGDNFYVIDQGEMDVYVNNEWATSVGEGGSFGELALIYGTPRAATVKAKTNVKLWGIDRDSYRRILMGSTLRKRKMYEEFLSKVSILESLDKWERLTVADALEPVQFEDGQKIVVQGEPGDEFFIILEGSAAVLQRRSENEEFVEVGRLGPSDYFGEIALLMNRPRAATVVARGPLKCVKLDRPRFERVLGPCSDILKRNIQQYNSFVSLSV
T4 sequence (P12367 1-46): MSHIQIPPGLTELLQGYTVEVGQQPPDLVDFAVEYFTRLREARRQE
T5 sequence (P00514 1-109): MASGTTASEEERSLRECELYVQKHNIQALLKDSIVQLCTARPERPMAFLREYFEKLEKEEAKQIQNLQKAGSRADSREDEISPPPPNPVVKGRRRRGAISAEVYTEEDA

Binder | EC50 (read off the curve) (Full-length murine RIIα [1]) [nM] | Kd (Full-length bovine RIα [2]) [nM] | Kd (Full-length murine RIIα [3]) [nM] | Kd (Full-length bovine RIα [4]) [nM] | Kd (Full-length murine RIIα [5]) [nM] | EC50 (read off the curve) (Full-length bovine RIα [7]) [nM] | fold signal intensity against PKA-RIα-GFP (PKA-RIIα-GFP) [fold] | other results
VQGNTDEAQEELAWKIAKMIVSDVMQQC(tetramethylrhodamine‑5‑maleimide)-NH2 (also called unsubstituted peptide) [AKB (dual), WT (SEQ ID NO:108) VQGNTDEAQEELAWKIAKMIVSDVMQQC, rhodamine-labeled] | ~3 | 48 | 2.2 | 48 | 2.2 | ~50 | – | fold increase in binding affinity against the Ile variant [6]: ~3 fold
VQGNTDEAQEELLWKIAKMIVSDVMQQC(tetramethylrhodamine‑5‑maleimide)-NH2 (also called RIIα-specific (A13L)) [AKB (RII), RII specific (SEQ ID NO:109) VQGNTDEAQEELLWKIAKMIVSDVMQQC, rhodamine-labeled] | ~3 | – | – | 2490 | 2.7 | – | – | –
VQGNTDEAQEELAWKIEKMIWSDVMQQC(tetramethylrhodamine‑5‑maleimide)-NH2 (also called null peptide (A17E and V21W)) [AKB (null) (SEQ ID NO:110) VQGNTDEAQEELAWKIEKMIWSDVMQQC, rhodamine-labeled] | – | – | – | 998 | > 10000 | – | – | –
FEELAWKIAKMIWSDVFQQC(tetramethylrhodamine‑5‑maleimide)-NH2 (also called PV-38; RIα-specific (Q9F, V21W, M25F)) [AKB (RI), RI specific (SEQ ID NO:103) FEELAWKIAKMIWSDVFQQC, rhodamine-labeled] | ~500 | 5.2 | 456 | 5.2 | 456 | ~10 | – | fold enhancement of binding against the unsubstituted peptide (Full-length bovine RIα [8]): 10 fold
VQGNTDEAQEELAWKIAKMIVSDIMQQ (also: cellulose-bound, also called Ile variant 27-mer; I24 peptide) [VQGNTDEAQEELAWKIAKMIVSDIMQQ (SEQ ID NO:1), cellulose-bound] | – | – | – | – | – | – | ~10 | binding result (GFP-RIIα D/D): binds; binding result (GFP-RIα D/D): binds
VQGNTDEAQEELAWKIAKMIVSDVMQQ (also: cellulose-bound, also called Val variant 27-mer; V24 peptide) [VQGNTDEAQEELAWKIAKMIVSDVMQQ (SEQ ID NO:2), cellulose-bound] | – | – | – | – | – | – | ~10 | –
